The data set addresses calmodulin (unlabeled, as used in the gel mobility-shift and kinase assays of Example 2) (UniProt P04353).

Regarding lily CCaMK truncation mutant 1-356, the “Ca2+/calmodulin-dependent kinase activity (histone IIAS phosphorylation)” value was “retained Ca2+/calmodulin-dependent kinase activity at a substantially reduced level”.
